Measurements published in PMC12955825 (Med (New York, N.Y.), 2025).
Bridge positions count the residues as written; N and C are the ends. Ends that are not written are not given here.

How the values were obtained:
Test in all cases: phage-binding assay
[1] = target: T1, complement component 1 Q subcomponent-binding protein (mitochondrial) (human, UniProt Q07021 74-282)
T1 sequence (looked up): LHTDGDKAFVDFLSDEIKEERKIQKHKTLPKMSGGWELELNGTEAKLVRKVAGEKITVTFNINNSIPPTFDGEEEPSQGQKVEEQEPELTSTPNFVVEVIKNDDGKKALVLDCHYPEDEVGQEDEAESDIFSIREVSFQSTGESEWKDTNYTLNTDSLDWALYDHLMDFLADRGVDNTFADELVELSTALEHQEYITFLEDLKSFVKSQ

[2] = target: T2, annexin A1 (human, UniProt P04083 1-346)
T2 sequence (looked up): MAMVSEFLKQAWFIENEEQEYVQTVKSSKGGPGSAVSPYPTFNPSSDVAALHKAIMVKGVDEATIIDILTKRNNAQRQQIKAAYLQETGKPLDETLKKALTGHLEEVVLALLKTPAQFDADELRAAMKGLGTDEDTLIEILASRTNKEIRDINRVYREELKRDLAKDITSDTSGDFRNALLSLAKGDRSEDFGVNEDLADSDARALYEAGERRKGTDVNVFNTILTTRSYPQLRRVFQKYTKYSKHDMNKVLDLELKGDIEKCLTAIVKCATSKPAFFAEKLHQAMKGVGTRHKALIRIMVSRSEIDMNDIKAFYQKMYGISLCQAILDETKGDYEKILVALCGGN

[3] = target: T3, CASQ1, human recombinant protein (human, UniProt P31415 35-396)
T3 sequence (looked up): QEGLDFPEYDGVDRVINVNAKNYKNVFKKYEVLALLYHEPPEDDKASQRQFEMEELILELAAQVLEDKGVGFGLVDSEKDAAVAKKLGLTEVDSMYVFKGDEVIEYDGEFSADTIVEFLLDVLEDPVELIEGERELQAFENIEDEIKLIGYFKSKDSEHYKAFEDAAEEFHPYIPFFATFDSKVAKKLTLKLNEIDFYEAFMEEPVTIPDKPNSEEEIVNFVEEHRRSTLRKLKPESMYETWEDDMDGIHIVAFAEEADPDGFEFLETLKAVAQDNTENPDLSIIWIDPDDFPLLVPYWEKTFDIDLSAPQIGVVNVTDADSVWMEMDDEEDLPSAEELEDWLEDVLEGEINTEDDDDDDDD

[4] = target: 78 kDa glucose-regulated protein (human, UniProt P11021 19-654)
Chain of 78 kDa glucose-regulated protein (P11021 19-654): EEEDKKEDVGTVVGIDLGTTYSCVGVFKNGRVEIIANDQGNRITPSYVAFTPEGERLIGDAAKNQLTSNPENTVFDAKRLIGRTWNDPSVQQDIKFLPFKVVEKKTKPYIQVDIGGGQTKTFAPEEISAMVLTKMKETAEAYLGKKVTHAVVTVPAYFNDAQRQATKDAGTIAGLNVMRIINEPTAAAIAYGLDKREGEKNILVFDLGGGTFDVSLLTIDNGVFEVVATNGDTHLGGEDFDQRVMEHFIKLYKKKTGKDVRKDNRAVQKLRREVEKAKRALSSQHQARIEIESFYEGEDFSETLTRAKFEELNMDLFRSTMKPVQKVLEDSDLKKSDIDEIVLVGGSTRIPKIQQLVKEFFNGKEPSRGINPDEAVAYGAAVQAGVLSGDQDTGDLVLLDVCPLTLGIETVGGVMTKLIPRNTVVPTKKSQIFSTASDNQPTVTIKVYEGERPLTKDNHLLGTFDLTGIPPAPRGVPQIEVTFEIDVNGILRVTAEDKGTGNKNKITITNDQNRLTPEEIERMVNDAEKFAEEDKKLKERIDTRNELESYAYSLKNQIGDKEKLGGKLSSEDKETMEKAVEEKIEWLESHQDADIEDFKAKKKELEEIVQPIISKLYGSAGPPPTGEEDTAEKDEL

[5] = target: heat shock cognate 71 kDa protein (human, UniProt P11142 1-646)
Chain of heat shock cognate 71 kDa protein (P11142 whole entry): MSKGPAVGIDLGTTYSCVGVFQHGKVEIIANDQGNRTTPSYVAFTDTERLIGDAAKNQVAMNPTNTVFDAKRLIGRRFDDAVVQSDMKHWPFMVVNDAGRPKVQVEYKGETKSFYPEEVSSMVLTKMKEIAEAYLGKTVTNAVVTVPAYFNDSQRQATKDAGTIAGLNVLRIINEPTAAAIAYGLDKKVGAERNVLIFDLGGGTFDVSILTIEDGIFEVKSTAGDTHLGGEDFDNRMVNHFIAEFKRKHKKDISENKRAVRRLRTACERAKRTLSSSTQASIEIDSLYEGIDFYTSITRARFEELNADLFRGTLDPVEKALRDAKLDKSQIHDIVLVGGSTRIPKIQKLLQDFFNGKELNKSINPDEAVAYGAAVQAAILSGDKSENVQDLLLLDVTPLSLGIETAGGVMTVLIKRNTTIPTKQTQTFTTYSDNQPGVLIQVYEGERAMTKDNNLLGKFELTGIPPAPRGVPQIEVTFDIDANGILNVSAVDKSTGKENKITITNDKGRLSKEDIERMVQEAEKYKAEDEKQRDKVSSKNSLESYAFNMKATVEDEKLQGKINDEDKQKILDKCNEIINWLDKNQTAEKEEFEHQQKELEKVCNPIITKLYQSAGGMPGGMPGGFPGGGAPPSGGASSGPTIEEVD

[6] = target: desmin (human, UniProt P17661 1-470)
Chain of desmin (P17661 whole entry): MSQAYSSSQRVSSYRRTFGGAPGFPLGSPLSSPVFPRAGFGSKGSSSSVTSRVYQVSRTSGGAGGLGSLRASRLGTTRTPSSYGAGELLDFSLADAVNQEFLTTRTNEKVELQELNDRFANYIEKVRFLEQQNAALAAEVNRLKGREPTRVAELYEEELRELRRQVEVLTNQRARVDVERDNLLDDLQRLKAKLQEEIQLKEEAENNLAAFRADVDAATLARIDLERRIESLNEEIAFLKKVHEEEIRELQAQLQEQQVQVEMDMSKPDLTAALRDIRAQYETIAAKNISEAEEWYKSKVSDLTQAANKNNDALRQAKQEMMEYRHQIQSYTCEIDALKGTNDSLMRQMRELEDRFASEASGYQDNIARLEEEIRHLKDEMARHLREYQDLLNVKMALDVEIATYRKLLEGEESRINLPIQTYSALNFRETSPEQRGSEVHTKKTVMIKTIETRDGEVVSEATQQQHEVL

[7] = target: peptidyl-prolyl cis-trans isomerase B (human, UniProt P23284 34-216)
Chain of peptidyl-prolyl cis-trans isomerase B (P23284 34-216): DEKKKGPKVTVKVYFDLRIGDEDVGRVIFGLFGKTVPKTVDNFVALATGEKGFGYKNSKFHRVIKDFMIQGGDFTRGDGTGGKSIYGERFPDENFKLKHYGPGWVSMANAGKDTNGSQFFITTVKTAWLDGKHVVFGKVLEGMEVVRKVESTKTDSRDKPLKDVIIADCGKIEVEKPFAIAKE

[8] = target: T4, CRYAB, human recombinant protein (human, UniProt P02511 1-175)
T4 sequence (looked up): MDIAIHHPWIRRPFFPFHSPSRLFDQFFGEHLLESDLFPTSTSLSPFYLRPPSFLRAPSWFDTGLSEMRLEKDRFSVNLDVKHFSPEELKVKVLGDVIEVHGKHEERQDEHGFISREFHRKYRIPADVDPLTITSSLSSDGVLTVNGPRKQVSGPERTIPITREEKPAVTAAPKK

[9] = target: HSP27, human recombinant protein (human, UniProt P04792 1-205)
Chain of HSP27, human recombinant protein (P04792 whole entry): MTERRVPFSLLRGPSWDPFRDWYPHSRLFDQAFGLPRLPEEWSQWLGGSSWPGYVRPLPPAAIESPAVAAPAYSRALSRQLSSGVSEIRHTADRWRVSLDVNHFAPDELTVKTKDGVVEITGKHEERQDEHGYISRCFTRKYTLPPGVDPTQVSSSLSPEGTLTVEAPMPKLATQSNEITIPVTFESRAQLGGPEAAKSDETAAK

[10] = target: T5, fructose-bisphosphate aldolase A (human, UniProt P04075 1-364)
T5 sequence (looked up): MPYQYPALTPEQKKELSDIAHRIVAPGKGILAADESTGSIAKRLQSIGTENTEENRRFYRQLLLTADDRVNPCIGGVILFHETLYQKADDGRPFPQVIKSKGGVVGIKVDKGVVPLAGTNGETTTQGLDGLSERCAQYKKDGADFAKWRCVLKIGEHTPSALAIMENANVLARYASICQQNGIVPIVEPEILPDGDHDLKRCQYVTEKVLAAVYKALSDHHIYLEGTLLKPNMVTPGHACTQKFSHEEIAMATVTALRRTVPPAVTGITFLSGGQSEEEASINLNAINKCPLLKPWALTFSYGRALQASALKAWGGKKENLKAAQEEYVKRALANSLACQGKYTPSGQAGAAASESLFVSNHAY

[11] = target: BAG family molecular chaperone regulator 3 (human, UniProt O95817 1-575)
Chain of BAG family molecular chaperone regulator 3 (O95817 whole entry): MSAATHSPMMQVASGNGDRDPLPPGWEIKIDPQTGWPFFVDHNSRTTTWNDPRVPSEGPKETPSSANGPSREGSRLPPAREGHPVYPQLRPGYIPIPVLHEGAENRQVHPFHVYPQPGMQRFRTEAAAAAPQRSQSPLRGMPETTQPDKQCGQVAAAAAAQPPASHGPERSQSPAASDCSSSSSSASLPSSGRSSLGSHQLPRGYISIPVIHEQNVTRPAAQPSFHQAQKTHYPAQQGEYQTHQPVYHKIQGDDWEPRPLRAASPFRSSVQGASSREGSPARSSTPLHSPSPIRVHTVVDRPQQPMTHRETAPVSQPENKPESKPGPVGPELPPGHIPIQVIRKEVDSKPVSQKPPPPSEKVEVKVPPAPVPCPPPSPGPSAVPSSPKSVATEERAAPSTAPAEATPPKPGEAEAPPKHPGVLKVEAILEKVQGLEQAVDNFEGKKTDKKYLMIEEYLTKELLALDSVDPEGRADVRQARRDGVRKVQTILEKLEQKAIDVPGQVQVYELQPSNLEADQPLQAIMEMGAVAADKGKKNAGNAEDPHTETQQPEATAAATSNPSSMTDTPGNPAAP

[12] = target: T6, thioredoxin-dependent peroxide reductase (mitochondrial) (human, UniProt P30048 62-256)
T6 sequence (looked up): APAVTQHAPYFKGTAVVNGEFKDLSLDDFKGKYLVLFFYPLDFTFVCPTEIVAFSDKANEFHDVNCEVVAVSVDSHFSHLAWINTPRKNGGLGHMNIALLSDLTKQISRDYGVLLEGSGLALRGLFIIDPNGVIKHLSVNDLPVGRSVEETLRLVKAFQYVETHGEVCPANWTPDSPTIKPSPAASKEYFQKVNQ

[13] = target: lactotransferrin (human, UniProt P02788 20-710)
Chain of lactotransferrin (P02788 20-710): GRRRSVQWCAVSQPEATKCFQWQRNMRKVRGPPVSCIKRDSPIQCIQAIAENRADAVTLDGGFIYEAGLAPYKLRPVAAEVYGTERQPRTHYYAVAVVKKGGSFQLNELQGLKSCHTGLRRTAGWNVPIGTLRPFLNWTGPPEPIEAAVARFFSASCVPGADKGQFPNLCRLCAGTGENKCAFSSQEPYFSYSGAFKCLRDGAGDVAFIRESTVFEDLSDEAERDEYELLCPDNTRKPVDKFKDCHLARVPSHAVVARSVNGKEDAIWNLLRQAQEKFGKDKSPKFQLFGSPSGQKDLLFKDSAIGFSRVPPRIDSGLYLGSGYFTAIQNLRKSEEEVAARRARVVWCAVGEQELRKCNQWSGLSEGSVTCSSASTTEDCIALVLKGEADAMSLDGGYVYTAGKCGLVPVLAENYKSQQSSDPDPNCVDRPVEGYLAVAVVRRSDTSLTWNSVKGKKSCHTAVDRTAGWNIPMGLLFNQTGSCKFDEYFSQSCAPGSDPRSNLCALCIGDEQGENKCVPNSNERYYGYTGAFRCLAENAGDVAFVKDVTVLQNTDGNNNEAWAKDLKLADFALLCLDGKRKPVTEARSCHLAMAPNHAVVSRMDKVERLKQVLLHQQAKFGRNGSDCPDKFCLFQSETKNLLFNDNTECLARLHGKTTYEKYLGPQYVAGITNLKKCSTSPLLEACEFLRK

[14] = target: T7, calumenin (human, UniProt O43852 20-315)
T7 sequence (looked up): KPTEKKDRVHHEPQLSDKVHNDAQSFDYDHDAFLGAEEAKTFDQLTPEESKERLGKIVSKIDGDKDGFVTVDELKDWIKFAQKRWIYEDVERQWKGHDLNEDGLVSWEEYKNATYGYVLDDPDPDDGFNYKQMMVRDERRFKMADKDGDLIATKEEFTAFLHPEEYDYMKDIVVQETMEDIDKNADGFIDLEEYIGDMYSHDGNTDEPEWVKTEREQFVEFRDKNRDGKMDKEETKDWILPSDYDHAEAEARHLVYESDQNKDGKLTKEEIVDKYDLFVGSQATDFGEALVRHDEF

## CSRGSPDARC (disulfide 1-10) [CSRGSPDARC-displaying phage]
[1]
  binding result: binds

## CHKPPNFGSC (disulfide 1-10) [CHKPPNFGSC-displaying phage]
[2]
  binding result: binds

## CLRGFQRVC (disulfide 1-9) [CLRGFQRVC-displaying phage]
[3]
  binding result: binds

## CLRGFPALVC (disulfide 1-10) [CLRGFPALVC-displaying phage]
[3]
  binding result: binds

## CVLRFFSSC (disulfide 1-9) [CVLRFFSSC-displaying phage]
[4]
  binding result: binds

## CLNVSGRSC (disulfide 1-9) [CLNVSGRSC-displaying phage]
[5]
  binding result: binds

## CSRAKGRGAC (disulfide 1-10) [CSRAKGRGAC-displaying phage]
[6]
  binding result: binds

## CASAVPISC (disulfide 1-9) [CASAVPISC-displaying phage]
[7]
  binding result: binds

## CRGFVRGSC (disulfide 1-9) [CRGFVRGSC-displaying phage]
[8]
  binding result: binds

## CRPARVRGAC (disulfide 1-10) [CRPARVRGAC-displaying phage]
[8]
  binding result: binds

## CLVSGRSRC (disulfide 1-9) [CLVSGRSRC-displaying phage]
[9]
  binding result: binds

## CKWEGLDMAC (disulfide 1-10; also: displayed on phage) [CKWEGLDMAC-displaying phage]
[10]
  binding result: binds

## CEGKEDMQGC (disulfide 1-10) [CEGKEDMQGC-displaying phage]
[11]
  binding result: binds

## CTESFQKHLC (disulfide 1-10) [CTESFQKHLC-displaying phage]
[12]
  binding result: binds

## CGILGPWMAC (disulfide 1-10) [CGILGPWMAC-displaying phage]
[13]
  binding result: binds

## CPTFFAVPC (disulfide 1-9) [CPTFFAVPC-displaying phage]
[14]
  binding result: binds
